Source: PMC7553779 (eLife, 2020)

T1: human acid-sensing ion channel 1a (hASIC1a), full-length, wild type (human, UniProt P78348-2 1-528)
T1 sequence (looked up): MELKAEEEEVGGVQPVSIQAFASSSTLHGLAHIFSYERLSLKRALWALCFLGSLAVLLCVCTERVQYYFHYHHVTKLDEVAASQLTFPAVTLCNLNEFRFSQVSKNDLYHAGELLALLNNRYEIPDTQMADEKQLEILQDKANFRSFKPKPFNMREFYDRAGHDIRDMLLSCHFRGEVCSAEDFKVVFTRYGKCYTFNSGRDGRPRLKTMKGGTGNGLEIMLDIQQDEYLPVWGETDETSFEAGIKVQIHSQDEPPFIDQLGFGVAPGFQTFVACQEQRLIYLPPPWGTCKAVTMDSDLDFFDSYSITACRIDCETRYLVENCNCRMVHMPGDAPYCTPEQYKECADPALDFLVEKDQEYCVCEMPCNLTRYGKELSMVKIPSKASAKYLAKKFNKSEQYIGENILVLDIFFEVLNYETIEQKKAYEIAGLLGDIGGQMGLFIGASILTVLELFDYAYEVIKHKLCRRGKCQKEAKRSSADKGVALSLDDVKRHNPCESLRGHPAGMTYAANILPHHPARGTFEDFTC

T2: chicken acid-sensing ion channel 1 (cASIC1), full-length (chicken, UniProt Q1XA76 1-527)
T2 sequence (looked up): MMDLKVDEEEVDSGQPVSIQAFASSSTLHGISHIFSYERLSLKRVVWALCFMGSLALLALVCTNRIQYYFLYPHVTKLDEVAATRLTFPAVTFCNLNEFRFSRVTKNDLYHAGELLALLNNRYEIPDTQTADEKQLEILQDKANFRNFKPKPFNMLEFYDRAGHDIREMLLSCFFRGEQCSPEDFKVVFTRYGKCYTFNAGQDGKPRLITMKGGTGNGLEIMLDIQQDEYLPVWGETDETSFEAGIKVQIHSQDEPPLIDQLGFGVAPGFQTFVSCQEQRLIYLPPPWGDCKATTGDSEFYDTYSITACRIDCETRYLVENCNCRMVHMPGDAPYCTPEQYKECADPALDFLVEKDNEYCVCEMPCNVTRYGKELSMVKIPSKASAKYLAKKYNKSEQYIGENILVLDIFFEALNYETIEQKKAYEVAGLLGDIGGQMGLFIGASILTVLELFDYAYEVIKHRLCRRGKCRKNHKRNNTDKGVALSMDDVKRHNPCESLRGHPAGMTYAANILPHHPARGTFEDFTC

B1: Mambalgin1 (Mamba1) (peptide)
chain: LKCYQHGKVVTCHRDMKFCYHNTGMPFRNLKLILQGCSSSCSETENNKCCSTDRCNK
notes: also called wild-type Mamba1
B2: truncated human acid-sensing ion channel 1a with the 60 carboxyl terminal residues removed (hASIC1a^ΔC) (domain or fragment)
chain: MELKAEEEEVGGVQPVSIQAFASSSTLHGLAHIFSYERLSLKRALWALCFLGSLAVLLCVCTERVQYYFHYHHVTKLDEVAASQLTFPAVTLCNLNEFRFSQVSKNDLYHAGELLALLNNRYEIPDTQMADEKQLEILQDKANFRSFKPKPFNMREFYDRAGHDIRDMLLSCHFRGEVCSAEDFKVVFTRYGKCYTFNSGRDGRPRLKTMKGGTGNGLEIMLDIQQDEYLPVWGETDETSFEAGIKVQIHSQDEPPFIDQLGFGVAPGFQTFVACQEQRLIYLPPPWGTCKAVTMDSDLDFFDSYSITACRIDCETRYLVENCNCRMVHMPGDAPYCTPEQYKECADPALDFLVEKDQEYCVCEMPCNLTRYGKELSMVKIPSKASAKYLAKKFNKSEQYIGENILVLDIFFEVLNYETIEQKKAYEIAGLLGDIGGQMGLFIGASILTVLELFDYAYEVIKHKLCRR
notes: Trimer in the cryo-EM structures; […]; also called apo-hASIC1a^ΔC

Columns and labels:
[1] = molecular target: T1, human acid-sensing ion channel 1a …; experiment: cell-based or functional assay
[2] = molecular target: T2, chicken acid-sensing ion channel 1 …; experiment: cell-based or functional assay
[3] = molecular target: B2; experiment: cryo-EM structure; hASIC1a^ΔC-Mamba1 complex, toxin added in a 6:1 molar ratio of toxin to channel, 1 hr at 4°C, 20 mM Tris pH 8.0, 200 mM NaCl, 0.05% DDM, 0.01% CHS; 3.1 mg/ml; 3.90 Å; details: both partners purified
[4] = molecular target: the molecule itself; experiment: cryo-EM structure; apo-hASIC1a^ΔC, single-particle cryo-EM, 2.7 mg/ml, 20 mM Tris pH 8.0, 200 mM NaCl, 0.05% DDM, 0.01% CHS; C3 symmetry imposed; 3.56 Å

B1 was tested, and the “IC50 of inhibition of acid-evoked (pH 6.0) currents, whole-cell patch clamp, full-length hASIC1a in CHO cells” value [1] was 197 nM, the “IC50 of inhibition of full-length hASIC1a in CHO cells ('the reported IC50', Figure 1b)” value [1] was 149 nM and the “IC50 of inhibition of acid-evoked (pH 6.0) currents, whole-cell patch clamp, full-length cASIC1 in CHO cells” value [2] was 124 nM. The “stoichiometry N” value [3] was 1 Mamba1 per hASIC1a^ΔC subunit.

In the case of B2, the “stoichiometry N” value [4] is reported as 3.
